No end group written: not given here.
Assays:
[1] = target: T1, recombinant human PREP (Homo sapiens, UniProt P48147); assay: FRET-quench assay: probe cleavage by recombinant human PREP; type: biochemical; conditions: 1 nM enzyme
T1 construct: purchased R&D Systems 4308-SE
T1 sequence (P48147 1-710): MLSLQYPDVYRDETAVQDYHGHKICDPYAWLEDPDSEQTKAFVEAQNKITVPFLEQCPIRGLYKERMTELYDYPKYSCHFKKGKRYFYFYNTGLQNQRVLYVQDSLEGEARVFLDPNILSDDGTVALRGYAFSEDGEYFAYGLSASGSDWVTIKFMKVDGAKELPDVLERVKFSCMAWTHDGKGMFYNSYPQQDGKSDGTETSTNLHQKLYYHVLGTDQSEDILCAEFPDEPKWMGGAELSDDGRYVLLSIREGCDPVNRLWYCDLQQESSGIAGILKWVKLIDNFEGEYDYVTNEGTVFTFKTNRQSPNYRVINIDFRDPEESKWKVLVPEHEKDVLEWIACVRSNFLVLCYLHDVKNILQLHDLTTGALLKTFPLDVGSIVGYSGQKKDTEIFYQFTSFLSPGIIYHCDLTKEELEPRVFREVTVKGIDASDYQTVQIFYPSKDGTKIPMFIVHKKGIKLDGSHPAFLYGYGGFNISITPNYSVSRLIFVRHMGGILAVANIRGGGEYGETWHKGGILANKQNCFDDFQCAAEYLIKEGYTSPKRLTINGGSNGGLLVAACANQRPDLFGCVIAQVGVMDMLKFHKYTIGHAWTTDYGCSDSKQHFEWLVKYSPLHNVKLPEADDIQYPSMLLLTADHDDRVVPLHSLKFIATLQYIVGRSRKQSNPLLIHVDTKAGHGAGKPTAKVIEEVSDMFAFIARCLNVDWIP
From the text: Human prolyl oligopeptidase (PREP, 4308-SE), DPPIV (1180-SE), DPP9 (5419-SE), and DPPII/DPP7 (3438-SE) proteins were purchased from R&D Systems. Human DPP8 (BML-SE527) protein was purchased from Enzo Life Sciences. N-terminal octa-His-tagged human and mouse FAP proteins containing the extracellular domain (residues L26-D760 and L26-D761, respectively) were purified from the conditioned media of transiently-transfected CHO cells, by immobilized metal affinity chromatography (IMAC), followed by size exclusion chromatography (SEC).
(§1) Peptides of the region flanking the C-terminal human FGF21 cleavage site (VGPSQG) or a variant with D-alanine at P2 (VaPSQG) were synthesized (Anaspec, Inc.), containing an amine-terminal donor (HyLite Fluor 488 or Cy5.5 for aP NIRF) and a dark quencher-acceptor (QXL 520 or QSY21 for aP NIRF) conjugated to a supplementary C-terminal lysine. ANPFAP (Bioconjugate Chem 23:1704-11) and aP NIRF were synthesized by CPC Scientific (Sunnyvale, Calif.). Assays were conducted at 37° C. in 50 mM HEPES (pH 7.2), 150 mM NaCl, 1 mM EDTA, 0.1 mg/ml BSA. The excitation/emission wavelengths of cleaved peptide are 490/520 nm or 675/695 nm for ANPFAP and aP NIRF. Fluorescence was monitored on a Tecan M1000 Pro plate reader in kinetic mode. Except where indicated otherwise, measurements of serum or plasma FAP activity were performed with the peptide substrate concentration at 6 μM and a 10-fold dilution of serum or plasma in assay buffer.

[2] = target: T2, FAP endopeptidase activity in the plasma (Mus musculus, UniProt P97321); assay: FRET-quench assay: probe cleavage in mouse plasma (Fap WT, heterozygous, KO); type: biochemical, mice
T2 construct: the extracellular domain encoding the active enzyme can be shed from the cell surface; from tissue; host or cells: mouse plasma (C57BL/6 background; Fap +/+, +/-, -/-)
T2 sequence (P97321 24-761 limits assumed): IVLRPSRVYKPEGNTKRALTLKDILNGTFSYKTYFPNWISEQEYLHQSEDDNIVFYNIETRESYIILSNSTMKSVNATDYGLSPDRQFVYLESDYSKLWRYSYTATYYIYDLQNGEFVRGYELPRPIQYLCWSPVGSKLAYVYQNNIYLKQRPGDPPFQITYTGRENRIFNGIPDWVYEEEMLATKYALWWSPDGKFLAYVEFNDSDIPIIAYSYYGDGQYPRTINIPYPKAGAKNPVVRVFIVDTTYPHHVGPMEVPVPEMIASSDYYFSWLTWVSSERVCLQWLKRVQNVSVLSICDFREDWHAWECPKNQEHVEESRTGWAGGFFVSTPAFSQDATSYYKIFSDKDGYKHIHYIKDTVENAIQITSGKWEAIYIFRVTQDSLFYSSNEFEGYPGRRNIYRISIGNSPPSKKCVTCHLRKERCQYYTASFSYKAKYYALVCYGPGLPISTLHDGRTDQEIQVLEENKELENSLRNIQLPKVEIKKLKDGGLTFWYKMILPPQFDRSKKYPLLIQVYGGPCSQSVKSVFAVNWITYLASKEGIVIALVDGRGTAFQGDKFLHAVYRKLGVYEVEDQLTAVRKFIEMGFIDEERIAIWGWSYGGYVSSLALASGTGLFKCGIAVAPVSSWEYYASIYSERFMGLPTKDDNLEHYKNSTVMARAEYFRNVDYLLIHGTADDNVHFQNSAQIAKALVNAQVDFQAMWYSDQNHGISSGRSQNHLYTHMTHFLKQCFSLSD
Procedure: Mouse plasma samples were prepared in K3-EDTA MiniCollect tubes (Greiner Bio-One, 450475) and frozen immediately at −80° C. prior to analysis. Human serum samples were obtained from healthy donors or purchased from Discovery Life Sciences, Inc. (Los Osos, Calif.).
as §1

Row | probe cleavage signal in plasma ([2]; plasma from WT (Fap+/+) mice, 3 μM peptide) | probe cleavage activity in plasma ([2]; plasma from homozygous Fap KO mice, 3 μM peptide) | Substance | cleavage by recombinant human PREP [1] | probe cleavage activity in plasma ([2]; plasma from Fap heterozygous mice, 3 μM peptide) | probe cleavage in plasma ([2]; Fap KO plasma, plasma diluted 10-fold) | probe cleavage signal in plasma ([2]; WT plasma, plasma diluted 10-fold) | probe cleavage signal in plasma ([2]; heterozygous plasma, plasma diluted 10-fold)
1 | strong signal | even lower, but significant activity | GP probe: human FGF21 cleavage-site peptide VGPSQG with amine-terminal HyLite Fluor 488 donor and QXL 520 quencher on supplementary C-terminal lysine ({HyLite Fluor 488}-VGPSQGK(QXL 520)) | readily cleaved | approximately half the activity as that from WT mice |  |  | 
2 |  |  | aP probe: FGF21-based peptide VaPSQG (D-alanine at P2) with HyLite Fluor 488 donor and QXL 520 quencher | unable to digest |  | no cleavage | clear signal | intermediate

— patent publication US20200055896A1, “SUBSTRATES RECOGNIZED BY FIBROBLAST ACTIVATION PROTEIN (FAP) AND METHODS OF USING THE SAME” (GENENTECH, INC., priority 2017, published 2020)
